In patent publication US20110274694:

Target: purified Gβγ (G-protein βγ-subunits)

B1: His6-Erk2 (purified, wild-type) (protein)
chain: MAAAAAAGPEMVRGQVFDVGPRYTNLSYIGEGAYGMVCSAYDNLNKVRVAIKKISPFEHQTYCQRTLREIKILLRFRHENIIGINDIIRAPTIEQMKDVYIVQDLMETDLYKLLKTQHLSNDHICYFLYQILRGLKYIHSANVLHRDLKPSNLLLNTTCDLKICDFGLARVADPDHDHTGFLTEYVATRWYRAPEIMLNSKGYTKSIDIWSVGCILAEMLSNRPIFPGKHYLDQLNHILGILGSPSQEDLNCIINLKARNYLLSLPHKNKVPWNRLFPNADSKALDLLDKMLTFNPHKRIEVEQALAHPYLEQYYDPSDEPIAEAPFKFDMELDDLPKEKLKELIFEETARFQPGYRS
  phosphorylation of Erk2 ([32P]-autoradiography): caused increased phosphorylation of Erk2 to an extent similar to that caused by Mek*
